From US20100285016A1 (Genentech, published 2010) come the findings set out here.

T1: PRO34128-Fc fusion protein (human, UniProt Q6UXV0 19-351, limits assumed)
T1 construct: Used as conditioned medium; not shown: Fc portion
T1 sequence: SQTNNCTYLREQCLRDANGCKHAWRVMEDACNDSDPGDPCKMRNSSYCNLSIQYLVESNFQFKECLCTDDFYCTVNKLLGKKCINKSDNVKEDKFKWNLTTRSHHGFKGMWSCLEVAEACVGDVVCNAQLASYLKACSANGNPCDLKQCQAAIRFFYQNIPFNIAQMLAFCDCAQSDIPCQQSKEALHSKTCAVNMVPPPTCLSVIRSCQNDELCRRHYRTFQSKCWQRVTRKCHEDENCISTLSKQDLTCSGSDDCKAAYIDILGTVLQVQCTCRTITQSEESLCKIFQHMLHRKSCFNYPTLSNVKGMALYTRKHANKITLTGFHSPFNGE

B1: C-terminally FLAG-tagged ARTN (ligand, UniProt Q5T4W7 108-220, looked up)
chain: AGGPGSRARAAGARGCRLRSQLVPVRALGLGHRSDELVRFRFCSGSCRRARSPHDLSLASLLGAGALRPPPGSRPVSQPCCRPTRYEAVSFMDVNSTWRTVDRLSATACGCLG
notes: Produced in 293T cells and used as conditioned medium; not shown: C-terminal FLAG tag
B2: C-terminally FLAG-tagged PSPN (ligand, UniProt O60542 61-156, looked up)
chain: ALSGPCQLWSLTLSVAELGLGYASEEKVIFRYCAGSCPRGARTQHGLALARLQGQGRAHGGPCCRPTRYTDVAFLDDRHRWQRLPQLSAAACGCGG
notes: as for B1
B3: C-terminally FLAG-tagged NRTN (ligand, UniProt Q99748 96-197, looked up)
chain: ARLGARPCGLRELEVRVSELGLGYASDETVLFRYCAGACEAAARVYDLGLRRLRQRRRLRRERVRAQPCCRPTAYEDEVSFLDAHSRYHTVHELSARECACV
notes: Produced in 293T cells and used as conditioned medium; also called neurturin; not shown: C-terminal FLAG tag

This experiment addresses T1, PRO34128-Fc fusion protein. Put plainly: co-immunoprecipitation with protein-A beads from mixed conditioned media, anti-FLAG western blot. As to the method: GFR1-Fc, GFR2-Fc, GFR3-Fc, GFR4-Fc and PRO34128-Fc fusion proteins were produced by transfecting appropriate expression constructs using Fugene6™ (Roche Biosciences). C-terminally FLAG-tagged GDNF, NRTN, ARTN, PSPN and LEFTY-B were also produced in 293T cells by transfecting the appropriate expression construct in 293T cells using Fugene6™. All expression constructs are under CMV promoter control. The conditioned media were collected 48 hours post transfection and appropriate Fc fusion proteins (as indicated in the FIG. 6A) were mixed with the ligands and the interacting complexes were immunoprecipitated using protein-A beads (Sigma). Immunoprecipiated proteins were resolved on a SDS-PAGE and detected by western blotting. The co-precipitating FLAG-tagged proteins were detected using an anti-FLAG antibody (Sigma) at a final concentration of 1 μg/ml, HRP-conjugated anti-mouse antibody (ICN Biosciences) and a chemiluminescent substrate (Amersham).
On the technique in general: A western blot detects proteins with antibodies after separation by electrophoresis.
With B1, the binding result was “no binding”. Consider B2, for which the binding result was “no binding”. Regarding B3, the binding result is “no binding”.
